Where no end group is shown, it is not given here. The star is where a group is joined. Biotin = O=C1N[C@H]2[C@H](CS[C@H]2CCCCC(=O)*)N1
What was measured:
[1] = target: Ab4 (humanized antibody) (human); test: SPR
[2] = target: Ab2 (humanized antibody) (human); test: SPR
[3] = target: myc-tagged human TRPM4 on HEK 293 cells (Homo sapiens, UniProt Q8TD43); test: immunostaining of cells or tissue
Chain of myc-tagged human TRPM4 on HEK 293 cells (Q8TD43 whole entry): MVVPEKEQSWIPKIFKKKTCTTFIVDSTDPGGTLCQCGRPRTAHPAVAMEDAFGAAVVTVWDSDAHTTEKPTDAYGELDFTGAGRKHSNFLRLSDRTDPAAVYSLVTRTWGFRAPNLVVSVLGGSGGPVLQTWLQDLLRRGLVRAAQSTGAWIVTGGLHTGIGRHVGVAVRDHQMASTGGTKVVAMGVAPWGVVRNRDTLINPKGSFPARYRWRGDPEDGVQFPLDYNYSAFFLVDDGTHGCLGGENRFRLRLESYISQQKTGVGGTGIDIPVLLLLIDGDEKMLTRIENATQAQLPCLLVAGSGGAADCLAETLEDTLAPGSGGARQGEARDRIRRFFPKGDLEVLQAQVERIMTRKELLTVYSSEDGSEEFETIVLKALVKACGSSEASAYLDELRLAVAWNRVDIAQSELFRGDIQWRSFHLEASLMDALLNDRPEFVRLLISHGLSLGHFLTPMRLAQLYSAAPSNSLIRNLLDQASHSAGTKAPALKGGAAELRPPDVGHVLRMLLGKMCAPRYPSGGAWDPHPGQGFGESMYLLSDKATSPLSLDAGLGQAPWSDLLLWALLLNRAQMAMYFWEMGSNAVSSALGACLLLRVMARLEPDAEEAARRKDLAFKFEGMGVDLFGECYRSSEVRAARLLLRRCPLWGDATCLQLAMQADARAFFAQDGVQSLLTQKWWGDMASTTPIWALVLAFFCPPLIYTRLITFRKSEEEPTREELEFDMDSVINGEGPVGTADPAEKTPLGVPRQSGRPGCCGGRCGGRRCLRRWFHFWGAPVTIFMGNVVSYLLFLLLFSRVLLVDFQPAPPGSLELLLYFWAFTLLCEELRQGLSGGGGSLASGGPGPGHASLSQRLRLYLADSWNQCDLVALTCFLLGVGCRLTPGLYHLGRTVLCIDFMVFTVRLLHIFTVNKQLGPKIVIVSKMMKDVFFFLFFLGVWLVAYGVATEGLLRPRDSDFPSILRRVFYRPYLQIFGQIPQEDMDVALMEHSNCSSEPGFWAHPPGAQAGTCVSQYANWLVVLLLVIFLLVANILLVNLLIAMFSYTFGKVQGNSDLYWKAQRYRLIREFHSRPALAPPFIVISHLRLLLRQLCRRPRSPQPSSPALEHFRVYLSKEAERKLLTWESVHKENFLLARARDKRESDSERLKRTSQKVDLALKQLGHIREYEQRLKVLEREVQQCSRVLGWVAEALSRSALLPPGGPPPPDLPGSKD

Binder	Kd [1]	koff [2]	binding result [3]
RDSDSNCSSEPGFWAHPPGAQK(Biotin) [Peptide-biotin (…{Lys(biotin)})]	7 nM	0.00166 s⁻¹	
Ab1 (chimeric antibody) (antibody, V domains shown) VH: QVQLQESGPGLVKPSQSLSLTCTVTGYSITSDYAWNWIRQFPGNKLQWMGYLSYSGVTSYNPSLKGRISITRDTSKNQFFLQLSSVTPEDTATYYCARKGTYYRYEGSYWYFDVWGAGTTVTVSS VL: DIQMNQSPSSLSASLGDTITITCHANQNIDVWLSWYQQKPGNVPKLLIYKTSNLHTGVPSRFSGSGSGTDFTLTISSLQPEDIATYYCQQGQSYPLTFGGGTKLEIK			binds

From publication PMC12141489 (Scientific Reports, 2025)
